This assay addresses BAP-CD59a reporter, biotinylated in vitro by BirA (on CHO-S cells) (mouse). Description: FACS; CHO-S transfected with BAP-CD59a, incubated with BirA and stained with F-SA (non-transfected stained control MFI-69). For orientation: Flow cytometry measures light scatter and fluorescence of single cells or particles in a stream.

Chain of BAP-CD59a reporter, biotinylated in vitro by BirA (on CHO-S cells) (mouse) (chain, as listed by the source): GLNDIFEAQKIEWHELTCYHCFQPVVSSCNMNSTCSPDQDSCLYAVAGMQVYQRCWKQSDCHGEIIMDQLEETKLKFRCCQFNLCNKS

Take “R-Phycoerythrin-conjugated Streptavidin (from UniProt P22629 37-163)”: the MFI worked out at 24400.

These data come from patent publication US20140011213A1.
